Test results taken from patent publication US7871610B2, “Antibodies to Tie1 ectodomain” (Dyax Corp., priority 2003, dated 2011).

How the values were obtained:
Tie1 = Tie1 (Homo sapiens, UniProt P35590); experiment: Immunohistochemistry of matched human tumor and normal tissue sections; parameters: from tissue; host or cells: fresh frozen normal and tumor tissue (e.g. lung, kidney, skin, breast); conditions: fresh frozen tissue
Experimental: The Tie-1 antibodies were biotinylated using the EZ-link Sulfo-NHS-SS-Biotin (Pierce, Cat. 21331). For Tie-1/Fc and Tie-1-His, the reaction was performed for 2 hours on ice in 50 mM sodium carbonate buffer, pH 9.6, in the presence of a 5-fold molar excess of biotinylating agent. For the antibodies, the reaction was performed for 2 hours on ice in PBS, in the presence of a 15-fold molar excess of EZ-link Sulfo-NHS-SS-Biotin. The reaction was stopped by the addition of Tris-HCl, pH 7.5 (50 mM final concentration) followed by a 1-hour incubation on ice. Samples were then dialyzed against PBS.
Various normal and tumor tissue sections were stained with biotinylated antibodies. A mouse monoclonal anti-Tie1 antibody (7e8) (Alitalo laboratory, University of Helsinki) was used as a positive control. Sections without primary antibody served as negative control. All samples were fresh frozen tissues and staining was performed with the TSA-kit (Perkin-Elmer Life Sciences). After acetone fixation (10-20 min, −20° C.) the slides were treated with 0.73% H2O2 for 10 min to reduce endogenous peroxidase activity followed by blocking for 30 min with TNB buffer. Sections ([…] thick) were incubated with primary antibodies (10 μg/ml) overnight at 4° C. Sections with the mouse monoclonal anti-tie1 antibody (7e8) were treated with biotinylated anti-mouse antibodies (VectaStain) before the addition of streptavidin-HRP. Signal was amplified by using a TSA kit and the visualized by AEC (235 ml NaAc, 15 ml AEC (stock solution: 1600 mg 3-amino-9-ethyl-carbazole and 480 ml N-dimethylformamide), 250 μl H2O2).

HUVEC = experiment: Tube formation assay with HUVEC in collagen gel; assay type: cell-based, human; conditions: collagen I gel; E3 active even at 10 ng/ml (tested 1 ng/ml to 10 μg/ml); E3b-IgG1 tested 1 pg/ml to 10 ng/ml
Experimental: Human Umbilical vein endothelial cells (HUVEC) were obtained by treating fresh human umbilical cord veins with Trypsin-EDTA (1×) (Gibco/Invitrogen) for 20-25 minutes at 37° C. The cells were cultured in a T-25 flask coated with attachment factor (AF), (Cascade Biologics) in RPMI 1640 medium supplemented with 10% FCS, 0.4% BBE, 1% 1-glutamin, 1% penicillin/streptomycin. Primary cultures were detached with warm Trypsin-EDTA and used when confluent at the second or third passage. The cells were maintained in a proliferative state by culturing them in a split ratio 1:2 at an approximate density of the monolayer of about 60-80%. […]
After 2 passages HUVECs were seeded in their culture medium (40.10^3/50 μl/well of a 96-well plate) on a collagen gel (50 μl of collagen I 1.5 mg/ml) prepared by mixing 7.5 volumes of 2 mg/ml collagen (Collagen R; Serva, Heidelberg, Germany), 1 volume of 10×MEM, 1.5 volume of NaHCO3 (15.6 mg/ml) and ˜1 volume of NaOH to adjust the pH to 7.4. […] The total length of the tube network on the culture surface was quantified at ×40 magnification by the METAVUE™ Software (Universal Imaging Corporation). Results from triplicate wells were expressed as mean vessel area per field ±SEM (relative units). […]
Germlined E3 and its parental antibody were evaluated in the tube formation assay in a collagen type-I matrix. […]

Sequence of Tie1 (P35590 22-1138): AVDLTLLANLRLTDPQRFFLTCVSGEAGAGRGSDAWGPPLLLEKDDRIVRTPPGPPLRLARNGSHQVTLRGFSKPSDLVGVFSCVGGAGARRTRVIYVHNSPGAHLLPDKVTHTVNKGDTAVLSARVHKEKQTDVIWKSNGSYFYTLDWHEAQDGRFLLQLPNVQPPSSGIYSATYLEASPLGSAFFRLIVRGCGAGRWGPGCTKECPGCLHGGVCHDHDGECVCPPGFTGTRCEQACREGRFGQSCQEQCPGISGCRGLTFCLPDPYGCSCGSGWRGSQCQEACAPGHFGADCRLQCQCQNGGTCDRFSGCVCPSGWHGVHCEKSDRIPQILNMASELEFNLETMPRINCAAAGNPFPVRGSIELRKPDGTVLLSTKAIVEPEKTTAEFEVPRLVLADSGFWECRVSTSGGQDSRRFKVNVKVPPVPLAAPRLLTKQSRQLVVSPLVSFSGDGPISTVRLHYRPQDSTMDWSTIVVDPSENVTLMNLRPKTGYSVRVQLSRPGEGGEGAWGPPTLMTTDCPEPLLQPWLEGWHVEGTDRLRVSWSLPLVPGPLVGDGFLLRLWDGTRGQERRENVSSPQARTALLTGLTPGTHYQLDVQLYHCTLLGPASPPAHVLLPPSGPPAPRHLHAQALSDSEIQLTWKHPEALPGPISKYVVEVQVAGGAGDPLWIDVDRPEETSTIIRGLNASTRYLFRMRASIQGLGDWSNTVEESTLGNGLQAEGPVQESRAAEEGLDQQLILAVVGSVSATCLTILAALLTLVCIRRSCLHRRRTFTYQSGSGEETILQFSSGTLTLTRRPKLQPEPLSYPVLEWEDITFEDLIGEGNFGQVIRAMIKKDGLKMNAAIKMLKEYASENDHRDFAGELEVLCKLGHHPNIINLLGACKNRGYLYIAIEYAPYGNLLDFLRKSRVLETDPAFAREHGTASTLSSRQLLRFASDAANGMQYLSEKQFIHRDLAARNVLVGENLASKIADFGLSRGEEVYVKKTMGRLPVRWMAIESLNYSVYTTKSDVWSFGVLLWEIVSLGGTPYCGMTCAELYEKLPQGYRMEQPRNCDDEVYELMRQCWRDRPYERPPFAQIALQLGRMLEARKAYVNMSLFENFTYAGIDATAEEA

B1: E3: human anti-Tie1 antibody from Fab phage library; HC SEQ ID NO:114, LC SEQ ID NO:116 (antibody, V domains shown)
VH: EVQLLESGGGLVQPGGSLRLSCAASGFTFSMYGMVWVRQAPGKGLEWVSVISPSGGNTGYADSVKGRFTISRDNSKNTLYLQVNSLRAEDTAVYYCARAPRGYSYGYYYWGQGTLVTVSSASTKGPSVFPLAPSSKSTSGG
VL: DIQMTQSPLSLSASVGDRVTITCRASQGIGHYLAWYQQKPGKVPKLLIYTASTLQSGVPSRFSGSGSGTDFTLTINSLQPEDVATYYCQQFNSYPHTFGQGTRLDIK
modifications: Synthetically generated peptide
Tie1; 10 μg/ml
  staining of breast carcinoma: stained also other structures in addition to vessels
  staining of hypernephroma tissue: clear staining
  staining of kidney: stained kidney tubules in addition to the vessels
  staining of lung carcinoma: stained structures other than vessels
  staining of melanoma tissue: also stained other surrounding structures
  staining of normal lung (large veins): stained especially clearly the large veins
  staining of normal skin: stained blood vessels very faintly
  staining of veins and capillaries of mammary tissue (breast): brightest staining
Tie1; biotinylated IgG 10 μg/ml
  staining of vessels in normal tissues (tissue specificity): stained vessels in the lung and kidney but not in the skin
HUVEC
  tube formation by HUVECs: potent inhibitor of tube formation
